Measurements reported in US20230331827A1, “POTASSIUM CHANNEL INHIBITORS” (priority 2017, published 2023).

B1: KB_A12_ShK: ShK toxin in VL CDR2 of KB_A12, IgG1 (antibody, V domains shown)
VH: EVQLVESGGGLVRPGGSLRLSCAASGFTFSSYAMSWVRQAPGKGLEWVSAISGSGGSTYYADSVKGRFTISRDNTKNSLYLQMTSLRADDTAFYYCVKDFGPGYGTGWFDYWGPGTLVTVSS
VL: QSVLTQPPSVSEAPRQRVTITCSGSSSNIGNNAVNWYQQLPGKAPKLLIYAAGRRSCIDTIPKSRCTAFQCKHSMKYRLSFCRKTCGTCANSGVSDRFSAAKSGTSASLAINGLRSEDEADYYCAAWDDSLNGYVFGTGTKLTVLG
B2: KB_A12: EETI-II knottin fused into VL CDR2, D1A12 VH; parental KnotBody, isotype control (antibody, V domains shown)
VH: B1 VH
VL: QSVLTQPPSVSEAPRQRVTITCSGSSSNIGNNAVNWYQQLPGKAPKLLIYAAGRCPRILMRCKQDSDCLAGCVCGPNGFCGANSGVSDRFSAAKSGTSASLAINGLRSEDEADYYCAAWDDSLNGYVFGTGTKLTVLGQP

Columns and labels:
[1] = system: activated T cells in PBMCs; assay: Cytokine and Granzyme-B secretion by anti-CD3 activated PBMCs (Luminex); type: cell-based; details: 100 nM, 72 hours, 5 donors, compared to KB_A12
Description: Methods for measuring cytokine release from T cells are well known to those skilled in the art (eg Tarcha et al, (2012) J Pharmacology and Experimental Therapeutics, 342 p642-653). Peripheral blood mononuclear cells (PBMCs) were isolated from 5 healthy donors and were simulated by culturing in 96-well plates pre-coated with 500 ng/ml of the anti-CD3 antibody OKT3 (ebioscience, Cat. No. 16-0037-85). PBMCs were suspended at 2 × 10^6 cells/ml and 100 ul of cells suspension mixed with 100 ul of test sample (KB_A12_ShK) or positive control (free ShK toxin, Alomone labs, STS-400) or negative control (parental KnotBody KB_A12) at a final concentration of 100 nM. (Samples were in triplicate for KB_A12_ShK or duplicate for KB_A12 and free ShK). Cells were incubated at 37° C. for 72 hours, centrifuged at 1500 rpm for 5 mins at room temperature before removing 150 ul of supernatant. After 72 hours incubation, the concentration of cytokines and Granzyme-B was determined using a Luminex bead based assay according to manufacturers instructions (Thermo Fisher).

in vitro rat BBB model = assay: In vitro rat BBB model transcytosis, sandwich ELISA of Fab in lower chamber; type: in vitro ADME; details: test Fabs as oligoclonal mixes of 3 per well at 2 µM, controls 1 µM, value is per well
Description: In order to assess the ability of these KnotBodies to cross the BBB, a ready to use in vitro rat BBB model system (Pharmacocell, Cat. No. RBT-24H) was used. In this model system rat brain endothelial cells were co-cultured with pericytes and astrocytes to mimic the in vivo BBB anatomy (Nakagawa, S. et al. (2009) Neurochem. Int. 54, 253-263). The in vitro rat BBB kit was cultured according to manufacturer’s instructions and transendothelial electrical resistance (TEER) was measured prior to testing of KnotBodies to verify the integrity of the barrier. […] 21 KnotBody Fabs were tested for their ability to cross the in vitro BBB model system. […] The parent KnotBody KB_A12 was used as a negative control. Both positive and negative controls were expressed and purified in the Fab format as described above. […] The concentration of transcytosed Fabs in the lower chamber (referred as brain side) was determined using a sandwich ELISA. In this ELISA, Fabs were captured using an anti-CH1 antibody (provided by Hybridoma Reagent Laboratories) and detected using rabbit anti-human IgG Kappa light chain antibody (Abcam, Cat. No. ab195576) or anti-human IgG Lambda light chain antibody (Abcam, Cat. No. ab124719) followed by europium conjugated anti-rabbit antibody (Perkin Elmer, Cat. No. AD0105). […]

| Molecule | Secretion of Granzyme B [1] | Secretion of Interferon gamma [1] | Secretion of TNF-alpha [1] | Secretion of interleukin-17A [1] | % transcytosis after 6h (in vitro rat BBB model) [%] |
| --- | --- | --- | --- | --- | --- |
| B1 | reduced | reduced | reduced | reduced |  |
| B2 |  |  |  |  | 0.1 |
